Results: patent US20110118447A1

Tests used:
[1] = biological target: binding partner of C5A (XPA23); assay: Biacore
[2] = biological target: binding partner (antigen) of C5A (XPA23); assay: Biacore, K-off, fold vs original

| Binder | fold affinity vs original [1] [fold] | fold difference in affinity vs original [2] [fold] | fold difference in affinity vs original [1] [fold] |
| --- | --- | --- | --- |
| C5A (XPA23) VH G56F (antibody, V domains shown) VH: EVQLLESGGGLVQPGGSLRLSCAASGFTFSKYFMFWVRQAPGKGLEWVSVISPSGFMTRYADSVKGRFTISRDNSKNTLYLQMNSLRAEDTAVYYCARVGYGGNSDYWGQGTLVTVSS VL: DIQMTQSPSSVSASVGDRLTIICRASQDINRWLAWYQQTPGNAPKLLIHSATSLQSGVPSRFSGSGSGTDFTLTINSLQPEDFATYYCQQADSFPLTFGGGTKVEIK | 1.41 | 1.41 | – |
| C5A (XPA23) VH T58A (antibody, V domains shown) VH: EVQLLESGGGLVQPGGSLRLSCAASGFTFSKYFMFWVRQAPGKGLEWVSVISPSGGMARYADSVKGRFTISRDNSKNTLYLQMNSLRAEDTAVYYCARVGYGGNSDYWGQGTLVTVSS VL: DIQMTQSPSSVSASVGDRLTIICRASQDINRWLAWYQQTPGNAPKLLIHSATSLQSGVPSRFSGSGSGTDFTLTINSLQPEDFATYYCQQADSFPLTFGGGTKVEIK | – | 0.14 | 0.14 |
| C5A (XPA23) VH R59G (antibody, V domains shown) VH: EVQLLESGGGLVQPGGSLRLSCAASGFTFSKYFMFWVRQAPGKGLEWVSVISPSGGMTGYADSVKGRFTISRDNSKNTLYLQMNSLRAEDTAVYYCARVGYGGNSDYWGQGTLVTVSS VL: DIQMTQSPSSVSASVGDRLTIICRASQDINRWLAWYQQTPGNAPKLLIHSATSLQSGVPSRFSGSGSGTDFTLTINSLQPEDFATYYCQQADSFPLTFGGGTKVEIK | – | 1.04 | 1.04 |
| C5A (XPA23) VH T58L (antibody, V domains shown) VH: EVQLLESGGGLVQPGGSLRLSCAASGFTFSKYFMFWVRQAPGKGLEWVSVISPSGGMLRYADSVKGRFTISRDNSKNTLYLQMNSLRAEDTAVYYCARVGYGGNSDYWGQGTLVTVSS VL: DIQMTQSPSSVSASVGDRLTIICRASQDINRWLAWYQQTPGNAPKLLIHSATSLQSGVPSRFSGSGSGTDFTLTINSLQPEDFATYYCQQADSFPLTFGGGTKVEIK | – | 0.95 | 0.95 |
| C5A (XPA23) VH M57V (antibody, V domains shown) VH: EVQLLESGGGLVQPGGSLRLSCAASGFTFSKYFMFWVRQAPGKGLEWVSVISPSGGVTRYADSVKGRFTISRDNSKNTLYLQMNSLRAEDTAVYYCARVGYGGNSDYWGQGTLVTVSS VL: DIQMTQSPSSVSASVGDRLTIICRASQDINRWLAWYQQTPGNAPKLLIHSATSLQSGVPSRFSGSGSGTDFTLTINSLQPEDFATYYCQQADSFPLTFGGGTKVEIK | – | 0.03 | 0.03 |
| C5A (XPA23) VH T58I (antibody, V domains shown) VH: EVQLLESGGGLVQPGGSLRLSCAASGFTFSKYFMFWVRQAPGKGLEWVSVISPSGGMIRYADSVKGRFTISRDNSKNTLYLQMNSLRAEDTAVYYCARVGYGGNSDYWGQGTLVTVSS VL: DIQMTQSPSSVSASVGDRLTIICRASQDINRWLAWYQQTPGNAPKLLIHSATSLQSGVPSRFSGSGSGTDFTLTINSLQPEDFATYYCQQADSFPLTFGGGTKVEIK | – | 0.95 | 0.95 |
| C5A (XPA23) VH M57A (antibody, V domains shown) VH: EVQLLESGGGLVQPGGSLRLSCAASGFTFSKYFMFWVRQAPGKGLEWVSVISPSGGATRYADSVKGRFTISRDNSKNTLYLQMNSLRAEDTAVYYCARVGYGGNSDYWGQGTLVTVSS VL: DIQMTQSPSSVSASVGDRLTIICRASQDINRWLAWYQQTPGNAPKLLIHSATSLQSGVPSRFSGSGSGTDFTLTINSLQPEDFATYYCQQADSFPLTFGGGTKVEIK | – | 0.03 | 0.03 |
| C5A (XPA23) VH R59W (antibody, V domains shown) VH: EVQLLESGGGLVQPGGSLRLSCAASGFTFSKYFMFWVRQAPGKGLEWVSVISPSGGMTWYADSVKGRFTISRDNSKNTLYLQMNSLRAEDTAVYYCARVGYGGNSDYWGQGTLVTVSS VL: DIQMTQSPSSVSASVGDRLTIICRASQDINRWLAWYQQTPGNAPKLLIHSATSLQSGVPSRFSGSGSGTDFTLTINSLQPEDFATYYCQQADSFPLTFGGGTKVEIK | 0.09 | 0.09 | – |
| C5A (XPA23) VH R59F (antibody, V domains shown) VH: EVQLLESGGGLVQPGGSLRLSCAASGFTFSKYFMFWVRQAPGKGLEWVSVISPSGGMTFYADSVKGRFTISRDNSKNTLYLQMNSLRAEDTAVYYCARVGYGGNSDYWGQGTLVTVSS VL: DIQMTQSPSSVSASVGDRLTIICRASQDINRWLAWYQQTPGNAPKLLIHSATSLQSGVPSRFSGSGSGTDFTLTINSLQPEDFATYYCQQADSFPLTFGGGTKVEIK | 0.92 | 0.92 | – |
| C5A (XPA23) VH T58P (antibody, V domains shown) VH: EVQLLESGGGLVQPGGSLRLSCAASGFTFSKYFMFWVRQAPGKGLEWVSVISPSGGMPRYADSVKGRFTISRDNSKNTLYLQMNSLRAEDTAVYYCARVGYGGNSDYWGQGTLVTVSS VL: DIQMTQSPSSVSASVGDRLTIICRASQDINRWLAWYQQTPGNAPKLLIHSATSLQSGVPSRFSGSGSGTDFTLTINSLQPEDFATYYCQQADSFPLTFGGGTKVEIK | – | 1.81 | 1.81 |
| C5A (XPA23) VH M57I (antibody, V domains shown) VH: EVQLLESGGGLVQPGGSLRLSCAASGFTFSKYFMFWVRQAPGKGLEWVSVISPSGGITRYADSVKGRFTISRDNSKNTLYLQMNSLRAEDTAVYYCARVGYGGNSDYWGQGTLVTVSS VL: DIQMTQSPSSVSASVGDRLTIICRASQDINRWLAWYQQTPGNAPKLLIHSATSLQSGVPSRFSGSGSGTDFTLTINSLQPEDFATYYCQQADSFPLTFGGGTKVEIK | – | 0.03 | 0.03 |
| C5A (XPA23) VH M57F (antibody, V domains shown) VH: EVQLLESGGGLVQPGGSLRLSCAASGFTFSKYFMFWVRQAPGKGLEWVSVISPSGGFTRYADSVKGRFTISRDNSKNTLYLQMNSLRAEDTAVYYCARVGYGGNSDYWGQGTLVTVSS VL: DIQMTQSPSSVSASVGDRLTIICRASQDINRWLAWYQQTPGNAPKLLIHSATSLQSGVPSRFSGSGSGTDFTLTINSLQPEDFATYYCQQADSFPLTFGGGTKVEIK | 1.03 | 1.03 | – |
| C5A (XPA23) VH T58G (antibody, V domains shown) VH: EVQLLESGGGLVQPGGSLRLSCAASGFTFSKYFMFWVRQAPGKGLEWVSVISPSGGMGRYADSVKGRFTISRDNSKNTLYLQMNSLRAEDTAVYYCARVGYGGNSDYWGQGTLVTVSS VL: DIQMTQSPSSVSASVGDRLTIICRASQDINRWLAWYQQTPGNAPKLLIHSATSLQSGVPSRFSGSGSGTDFTLTINSLQPEDFATYYCQQADSFPLTFGGGTKVEIK | – | 0.95 | 0.95 |
| C5A (XPA23) VH M57L (antibody, V domains shown) VH: EVQLLESGGGLVQPGGSLRLSCAASGFTFSKYFMFWVRQAPGKGLEWVSVISPSGGLTRYADSVKGRFTISRDNSKNTLYLQMNSLRAEDTAVYYCARVGYGGNSDYWGQGTLVTVSS VL: DIQMTQSPSSVSASVGDRLTIICRASQDINRWLAWYQQTPGNAPKLLIHSATSLQSGVPSRFSGSGSGTDFTLTINSLQPEDFATYYCQQADSFPLTFGGGTKVEIK | – | 0.06 | 0.06 |
| C5A (XPA23) VH T58W (antibody, V domains shown) VH: EVQLLESGGGLVQPGGSLRLSCAASGFTFSKYFMFWVRQAPGKGLEWVSVISPSGGMWRYADSVKGRFTISRDNSKNTLYLQMNSLRAEDTAVYYCARVGYGGNSDYWGQGTLVTVSS VL: DIQMTQSPSSVSASVGDRLTIICRASQDINRWLAWYQQTPGNAPKLLIHSATSLQSGVPSRFSGSGSGTDFTLTINSLQPEDFATYYCQQADSFPLTFGGGTKVEIK | 0.93 | 0.93 | – |
| C5A (XPA23) VH G56P (antibody, V domains shown) VH: EVQLLESGGGLVQPGGSLRLSCAASGFTFSKYFMFWVRQAPGKGLEWVSVISPSGPMTRYADSVKGRFTISRDNSKNTLYLQMNSLRAEDTAVYYCARVGYGGNSDYWGQGTLVTVSS VL: DIQMTQSPSSVSASVGDRLTIICRASQDINRWLAWYQQTPGNAPKLLIHSATSLQSGVPSRFSGSGSGTDFTLTINSLQPEDFATYYCQQADSFPLTFGGGTKVEIK | – | 0.85 | 0.85 |
| C5A (XPA23) VH R59L (antibody, V domains shown) VH: EVQLLESGGGLVQPGGSLRLSCAASGFTFSKYFMFWVRQAPGKGLEWVSVISPSGGMTLYADSVKGRFTISRDNSKNTLYLQMNSLRAEDTAVYYCARVGYGGNSDYWGQGTLVTVSS VL: DIQMTQSPSSVSASVGDRLTIICRASQDINRWLAWYQQTPGNAPKLLIHSATSLQSGVPSRFSGSGSGTDFTLTINSLQPEDFATYYCQQADSFPLTFGGGTKVEIK | – | 0.08 | 0.08 |
| C5A (XPA23) VH T58F (antibody, V domains shown) VH: EVQLLESGGGLVQPGGSLRLSCAASGFTFSKYFMFWVRQAPGKGLEWVSVISPSGGMFRYADSVKGRFTISRDNSKNTLYLQMNSLRAEDTAVYYCARVGYGGNSDYWGQGTLVTVSS VL: DIQMTQSPSSVSASVGDRLTIICRASQDINRWLAWYQQTPGNAPKLLIHSATSLQSGVPSRFSGSGSGTDFTLTINSLQPEDFATYYCQQADSFPLTFGGGTKVEIK | 1.04 | 1.04 | – |
| C5A (XPA23) VH G56W (antibody, V domains shown) VH: EVQLLESGGGLVQPGGSLRLSCAASGFTFSKYFMFWVRQAPGKGLEWVSVISPSGWMTRYADSVKGRFTISRDNSKNTLYLQMNSLRAEDTAVYYCARVGYGGNSDYWGQGTLVTVSS VL: DIQMTQSPSSVSASVGDRLTIICRASQDINRWLAWYQQTPGNAPKLLIHSATSLQSGVPSRFSGSGSGTDFTLTINSLQPEDFATYYCQQADSFPLTFGGGTKVEIK | 1.51 | 1.51 | – |
| C5A (XPA23) VH T58V (antibody, V domains shown) VH: EVQLLESGGGLVQPGGSLRLSCAASGFTFSKYFMFWVRQAPGKGLEWVSVISPSGGMVRYADSVKGRFTISRDNSKNTLYLQMNSLRAEDTAVYYCARVGYGGNSDYWGQGTLVTVSS VL: DIQMTQSPSSVSASVGDRLTIICRASQDINRWLAWYQQTPGNAPKLLIHSATSLQSGVPSRFSGSGSGTDFTLTINSLQPEDFATYYCQQADSFPLTFGGGTKVEIK | – | 0.99 | 0.99 |
